Source: patent US20180291110A1 (Hoffmann-La Roche, published 2018)
Residue numbers refer to the chain shown, from its start. In names and notes the source's numbering stands.

B1: 4/94 SEQ ID NO 199 / SEQ ID NO 207 (antibody, V domains shown)
VH: QVQLQESGPGLVKPSETLSLTCTVSGFNIKDTYIHWVIQRPGKGLEWIGRIDPANGDTKSDPSLQSRVTISADTSKNQASLKLSSVTAADTAVYYCVRDYLYPYYFDFWGQGTTVTVSS
VL: KIVLTQSPGTLSLSPGERATLSCRASESVDTYVSWYQQKPGQAPRLLIYGASNRYTGVPDRFSGSGSGTDFTLTISRLEPEDFADYYCGQTYNYPLTFGQGTKLEI
B2: 4/94 SEQ ID NO 199 / SEQ ID NO 209 (antibody, V domains shown)
VH: B1 VH
VL: B1 VL with V58I
B3: 4/94 SEQ ID NO 199 / SEQ ID NO 208 (antibody, V domains shown)
VH: B1 VH
VL: B1 VL with K1E
B4: 4/94 murine VH / murine VL (antibody, V domains shown)
VH: EVQLQQSGAVLVKPGASVKLSCPASGFNIKDTYIHWVIQRPEQGLEWIGRIDPANGDTKCDPKFQVKATITADTSSNTAYLQLSSLTSEDTAVYFCVRDYLYPYYFDFWGQGTTLTVSS
VL: KIVMTQSPKSMSMSVGERVTLNCRASESVDTYVSWYQQKPEQSPELLIYGASNRYTGVPDRFTGSGSATDFTLTISSVQAEDLADYYCGQTYNYPLTFGAGTKLELKR
notes: 0 (mu) read as the murine parental domains of clone 4/94; also called 0 (mu) x 0 (mu)
B5: 4/94 SEQ ID NO 199 / murine VL (antibody, V domains shown)
VH: B1 VH
VL: B4 VL
B6: 4/94 SEQ ID NO 196 / murine VL (antibody, V domains shown)
VH: QVQLVQSGAEVKKPGASVKVSCKASGFNIKDTYIHWVIQAPGQGLEWMGRIDPANGDTKSDPKFQGRVTITADTSTSTVYMELSSLRSEDTAVYYCVRDYLYPYYFDFWGQGTTVTVSS
VL: B4 VL
B7: 4/94 SEQ ID NO 200 / murine VL (antibody, V domains shown)
VH: EVQLVESGGGLVQPGGSLRLSCAASGFNIKDTYIHWVIQAPGKGLEWVGRIDPANGDTKSDPSVQVRATISADTSKNTAYLQMNSLRAEDTAVYYCVRDYLYPYYFDFWGQGTTVTVSS
VL: B4 VL
B8: 4/94 murine VH / SEQ ID NO 201 (antibody, V domains shown)
VH: B4 VH
VL: KIQMTQSPSSLSASVGDRVTITCRASESVDTYVSWYQQKPGKAPKLLIYGASNRYTGVPSRFSGSGSGTDFTLTISSLQPEDFADYYCGQTYNYPLTFGQGTKLEI
B9: 4/94 murine VH / SEQ ID NO 207 (antibody, V domains shown)
VH: B4 VH
VL: B1 VL
B10: 4/94 murine VH / SEQ ID NO 208 (antibody, V domains shown)
VH: B4 VH
VL: B1 VL with K1E
B11: 4/94 SEQ ID NO 198 / murine VL (antibody, V domains shown)
VH: B6 VH with A16S, A40R, T74E, V79A
VL: B4 VL
B12: 4/94 murine VH / SEQ ID NO 209 (antibody, V domains shown)
VH: B4 VH
VL: B1 VL with V58I
B13: 4/94 SEQ ID NO 197 / murine VL (antibody, V domains shown)
VH: B6 VH with A16S, T74E, V79A
VL: B4 VL
B14: 4/94 SEQ ID NO 195 / murine VL (antibody, V domains shown)
VH: B6 VH with D61A, G66V
VL: B4 VL
B15: 4/94 SEQ ID NO 194 / murine VL (antibody, V domains shown)
VH: B6 VH with G66V
VL: B4 VL
B16: 4/94 SEQ ID NO 196 / SEQ ID NO 201 (antibody, V domains shown)
VH: B6 VH
VL: B8 VL
B17: 4/94 SEQ ID NO 199 / SEQ ID NO 201 (antibody, V domains shown)
VH: B1 VH
VL: B8 VL
B18: 4/94 SEQ ID NO 196 / SEQ ID NO 207 (antibody, V domains shown)
VH: B6 VH
VL: B1 VL
B19: 4/94 SEQ ID NO 198 / SEQ ID NO 209 (antibody, V domains shown)
VH: B6 VH with A16S, A40R, T74E, V79A
VL: B1 VL with V58I
B20: 4/94 SEQ ID NO 195 / SEQ ID NO 201 (antibody, V domains shown)
VH: B6 VH with D61A, G66V
VL: B8 VL
B21: 4/94 SEQ ID NO 197 / SEQ ID NO 208 (antibody, V domains shown)
VH: B6 VH with A16S, T74E, V79A
VL: B1 VL with K1E
B22: 4/94 SEQ ID NO 194 / SEQ ID NO 201 (antibody, V domains shown)
VH: B6 VH with G66V
VL: B8 VL
B23: 4/94 SEQ ID NO 198 / SEQ ID NO 201 (antibody, V domains shown)
VH: B6 VH with A16S, A40R, T74E, V79A
VL: B8 VL
B24: 4/94 SEQ ID NO 198 / SEQ ID NO 207 (antibody, V domains shown)
VH: B6 VH with A16S, A40R, T74E, V79A
VL: B1 VL
B25: 4/94 SEQ ID NO 195 / SEQ ID NO 207 (antibody, V domains shown)
VH: B6 VH with D61A, G66V
VL: B1 VL
B26: 4/94 SEQ ID NO 196 / SEQ ID NO 208 (antibody, V domains shown)
VH: B6 VH
VL: B1 VL with K1E
B27: 4/94 SEQ ID NO 198 / SEQ ID NO 208 (antibody, V domains shown)
VH: B6 VH with A16S, A40R, T74E, V79A
VL: B1 VL with K1E
B28: 4/94 SEQ ID NO 194 / SEQ ID NO 209 (antibody, V domains shown)
VH: B6 VH with G66V
VL: B1 VL with V58I
B29: 4/94 SEQ ID NO 196 / SEQ ID NO 209 (antibody, V domains shown)
VH: B6 VH
VL: B1 VL with V58I
B30: 4/94 SEQ ID NO 195 / SEQ ID NO 209 (antibody, V domains shown)
VH: B6 VH with D61A, G66V
VL: B1 VL with V58I
B31: 4/94 SEQ ID NO 194 / SEQ ID NO 207 (antibody, V domains shown)
VH: B6 VH with G66V
VL: B1 VL
B32: 4/94 SEQ ID NO 195 / SEQ ID NO 208 (antibody, V domains shown)
VH: B6 VH with D61A, G66V
VL: B1 VL with K1E
B33: 4/94 SEQ ID NO 197 / SEQ ID NO 209 (antibody, V domains shown)
VH: B6 VH with A16S, T74E, V79A
VL: B1 VL with V58I
B34: 4/94 SEQ ID NO 197 / SEQ ID NO 207 (antibody, V domains shown)
VH: B6 VH with A16S, T74E, V79A
VL: B1 VL
B35: 4/94 SEQ ID NO 197 / SEQ ID NO 201 (antibody, V domains shown)
VH: B6 VH with A16S, T74E, V79A
VL: B8 VL
B36: 4/94 SEQ ID NO 194 / SEQ ID NO 208 (antibody, V domains shown)
VH: B6 VH with G66V
VL: B1 VL with K1E
B37: Trastuzumab HC x Pertuzumab (Tras.L3) R54L LC (antibody, V domains shown)
VH: not shown
VL: DIQMTQSPSSLSASVGDRVTITCKASQDVSIGVAWYQQKPGKAPKLLIYSASYLYTGVPSRFSGSGSGTDFTLTISSLQPEDFATYYCQQHYTTPPTFGQGTKVEIK
B38: Trastuzumab HC x Pertuzumab (Tras.L3) T56S LC (antibody, V domains shown)
VH: not shown
VL: B37 VL with L54R, T56S
B39: Trastuzumab HC x Pertuzumab (Tras.L3) Y53F LC (antibody, V domains shown)
VH: not shown
VL: B37 VL with Y53F, L54R
B40: Trastuzumab HC x Pertuzumab (Tras.L3) S30N LC (antibody, V domains shown)
VH: not shown
VL: B37 VL with S30N, L54R

Each binder was assayed against T1, human transferrin receptor (recombinant, for surface plasmon resonance) (human, UniProt P02786 89-760) (assay: SPR).
T1 construct: also called huTfR; human transferrin receptor-biotinylated
T1 sequence (P02786 89-760 limits assumed): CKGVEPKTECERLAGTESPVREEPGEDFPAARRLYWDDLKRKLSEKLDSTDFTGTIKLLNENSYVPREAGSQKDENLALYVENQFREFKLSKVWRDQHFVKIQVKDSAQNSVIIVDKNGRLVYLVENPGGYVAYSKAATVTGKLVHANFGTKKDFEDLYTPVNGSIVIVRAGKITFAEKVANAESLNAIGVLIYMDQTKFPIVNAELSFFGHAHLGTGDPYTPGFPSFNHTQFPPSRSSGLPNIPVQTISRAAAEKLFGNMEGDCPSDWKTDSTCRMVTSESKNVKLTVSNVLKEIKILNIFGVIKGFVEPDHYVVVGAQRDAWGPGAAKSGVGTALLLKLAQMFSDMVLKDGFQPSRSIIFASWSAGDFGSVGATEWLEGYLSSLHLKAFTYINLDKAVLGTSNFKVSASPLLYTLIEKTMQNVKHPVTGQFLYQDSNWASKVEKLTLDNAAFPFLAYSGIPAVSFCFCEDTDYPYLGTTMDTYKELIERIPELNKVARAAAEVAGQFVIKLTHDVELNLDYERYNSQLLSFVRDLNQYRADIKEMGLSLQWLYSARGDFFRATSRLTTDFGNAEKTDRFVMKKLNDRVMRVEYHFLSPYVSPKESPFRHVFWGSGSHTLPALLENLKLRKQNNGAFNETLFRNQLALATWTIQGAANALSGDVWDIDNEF

Point of comparison: B6, koff 0.000339 s⁻¹. Against it:
- B1 — 1.6-fold higher, 0.000527 s⁻¹
- B2 — 1.6-fold higher, 0.000552 s⁻¹
- B3 — 1.6-fold higher, 0.00055 s⁻¹
- B4 — 2.5-fold lower, 0.000136 s⁻¹
- B5 — within 1.5-fold, 0.000381 s⁻¹
- B7 — within 1.5-fold, 0.000232 s⁻¹
- B8 — 2.5-fold lower, 0.000137 s⁻¹
- B9 — 2.2-fold lower, 0.000156 s⁻¹
- B10 — 2.3-fold lower, 0.000148 s⁻¹
- B11 — 1.6-fold higher, 0.000544 s⁻¹
- B12 — 1.9-fold lower, 0.000177 s⁻¹
- B13 — 1.6-fold higher, 0.000542 s⁻¹
- B14 — within 1.5-fold, 0.000364 s⁻¹
- B15 — within 1.5-fold, 0.00037 s⁻¹
- B16 — within 1.5-fold, 0.000386 s⁻¹
- B17 — within 1.5-fold, 0.000486 s⁻¹
- B18 — within 1.5-fold, 0.00043 s⁻¹
- B19 — 2.1-fold higher, 0.000728 s⁻¹
- B20 — within 1.5-fold, 0.000399 s⁻¹
- B21 — 2-fold higher, 0.000683 s⁻¹
- B22 — within 1.5-fold, 0.00041 s⁻¹
- B23 — 2-fold higher, 0.000684 s⁻¹
- B24 — 2.1-fold higher, 0.000717 s⁻¹
- B25 — within 1.5-fold, 0.000426 s⁻¹
- B26 — within 1.5-fold, 0.000434 s⁻¹
- B27 — 2.1-fold higher, 0.000717 s⁻¹
- B28 — within 1.5-fold, 0.000448 s⁻¹
- B29 — within 1.5-fold, 0.000452 s⁻¹
- B30 — within 1.5-fold, 0.000438 s⁻¹
- B31 — within 1.5-fold, 0.000454 s⁻¹
- B32 — within 1.5-fold, 0.000415 s⁻¹
- B33 — 2.1-fold higher, 0.000705 s⁻¹
- B34 — 2.1-fold higher, 0.000703 s⁻¹
- B35 — 1.9-fold higher, 0.000657 s⁻¹
- B36 — within 1.5-fold, 0.000476 s⁻¹

What follows are binders tested against T2, Her2 ECD (amino acids 1 to 629 of matured HER2 with C-terminal avi-tag and His-tag) (human, UniProt P04626 23-652) (assay: SPR, Ab captured, Her2 analyte;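 note: ProteOn XPR36 SPR, rate constants from simultaneous fit of association and dissociation sensorgrams to a 1:1 Langmuir model, buffer-channel referenced, KD taken as koff/kon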).
T2 construct: also called purified Her2

Point of comparison: B39, Kd 44.9 nM. Against it:
- B37 — 1.6-fold higher, 71.5 nM
- B38 — within 1.5-fold, 49.4 nM
- B40 — within 1.5-fold, 64.6 nM

Point of comparison: B38, koff 0.0232 s⁻¹. Against it:
- B37 — within 1.5-fold, 0.0297 s⁻¹
- B39 — within 1.5-fold, 0.0171 s⁻¹
- B40 — within 1.5-fold, 0.0256 s⁻¹

Point of comparison: B38, kon 470000 M⁻¹ s⁻¹. Against it:
- B37 — within 1.5-fold, 416000 M⁻¹ s⁻¹
- B39 — within 1.5-fold, 381000 M⁻¹ s⁻¹
- B40 — within 1.5-fold, 396000 M⁻¹ s⁻¹
